# According to the DeepSol protein solubility set:
# Assay: soluble on expression in E. coli; label from the status in PepcDB or PDB records
row,Sequence,soluble on expression in E. coli
1,MFIEVEKFVEARTNSIAQLLKAIDNDALVSGEVTKGPRTAAQRLPRHMRRRAMAYDIRRFPRTMREFAAAHLISKHAKKCPSRFARRKSANSRTKFGRSTSTKGIWLSTHVWHAKRFRMIQKWGFKLADRSFQRGFRAVLRDSNKNCVIRDRSYYTCVTIQCTDAYSKISQFSQKGCRGQSSRDEEEECHQLYMPGKYPFGYIGPARFQRLSGDKVHIWIHPSSKLQFMKALLEYYNLEKQENTEEDLYKNSEIKVSIDAENICRFHLSGPKCLSKLRDSIRFVNDEKFSSEHNYFLSVSDSVFQSSRDGEVINLLIEDPRTTWDRKTVLKHKKVNKEADNERIRVSKFWNKEFREMAIEKRMADSEFHKQNSSKINGVISTEAKVPIILIIRNEGLKALDGADILIPEPFAKDFWVSLQRRGVRASGLRDEYAAHLESKALYYPLDDVGSEAGRESELAMKKELIEKYLGKPHNRRCKHWSAVSVKYPFEFKWDELSQDWNLSNKPRSEAFVCRDLQKLRIIEEAMKKGSGLEEFQEPGMLIPVKLQFFGRGRPKKYGMVCLPTDDDLISIRKNRNREIIQTPPEASSQDSDIVEAMEIEEITVKKNQGFMSLEAAASEKPINLKLLFEETTKLDDKTTKRKRVNRKKRESKKRRKIEQEKRKEEAEVEEVQKLATKYRFSANREIIGRLVAGEQSVLAGHGVGIGYICANTLSLIASNYHKSKTVVMVRNSTSKYYHPAYVTILKNATKI,not soluble
2,MSLKPEKPSDTELVFISNAETIRDYLLRLSVDELKLLAKYILQNVYIVFVQTDDFASSFRLFNVLNSRGLPLSNADLLKNALFESASTHNKKSEQIESAWSQIEDMVGVRRLDKFLTLHKLSEKKDRDRVLQKGFEAFIENLQQQFDGDAIAMSLMLVNSAKNYTKILENDFEHPSIRRKIASLSNLGVDEWIPPVMAFMNRMARTEDFNLDDFSQFITAFEKVYMHGWLKKQIKSQREMVCYSALVAINNDMPFDSVINQINQHADNSGFIAALDEDLYEPRPNQVNLIKAILLRLDMEQQDESVIKTYTGRITIEHILPQALVNEYWINRFQPQEHVYWLHKIGNLTLISGSKNSEAQHYDFIKKKSIYEKLNSKSSFDLTKDVCNSSEWGLAELKMRHEKMKTQLKKLWLVEGHHHHHH,not soluble
3,MMGRGKLILIEGLDRTGKTTQCNILYKKLQPNCKLLKFPERSTRIGGLINEYLTDDSFQLSDQAIHLLFSANRWEIVDKIKKDLLEGKNIVMDRYVYSGVAYSAAKGTNGMDLDWCLQPDVGLLKPDLTLFLSTQDVDNNAEKSGFGDERYETVKFQEKVKQTFMKLLDKEIRKGDESITIVDVTNKGIQEVEALIWQIVEPVLSTHIDHDKFSFF,soluble
4,MEAVHCFRCYKFPSKQIEFYLTNCMHMFCIECERLCHPPEEEPLKCIQCSKTPIRIVKMGPELPMTIKSMFTPISEEINQYTRDLTRVLTFQHRQRASLSTFLERKVAAFDRLRDAYSEEKTKKEHYKKQLEEAYHLLKSKEHEISKLKKQLAEQAPPPQTPPRSNSLKVASSRSLETPSMMRVFSDSMYETPVQIQRRFTKAQAKAEAEAEAPAKSPGSKAQTTKCTSNYQSHPPASFETPIHHPPKTSMGFTTPANPPHMFPYLKKHEAQREKHKEHRNSQ,not soluble
5,MFRNVAELVALAEKDSIKIAEVMIRQEVEVSGRSREEVIAQMDHHLSVMERAVERGLEGVVSRSGLTGGDAVRMQRYIEGGRFLSGETILDAVSKAMATNEVNAAMGVICATPTAGAAGVVPGTLFAVKEKLRPTRMEMIEFLFTAGAFGYVVANNASISGAAGGCQAEVGSAAGMAAAALVELAGGTPGQAAEAMAIALKNMLGLVCDPVAGLVEVPCVKRNAMGAANAMIAADMALAGIKSRIPCDEVIEAMYRIGAAMPVALKETAQGGLAATPTGRAIAARIFGASAASK,not soluble
6,MSNLVLYTLHLSPPCRAVELTAKALGLELEQKTINLLTGDHLKPEFVKLNPQHTIPVLDDNGTIITESHAIMIYLVTKYGKDDSLYPKDPVKQARVNSALHFESGVLFARMRFIFERILFFGKSDIPEDRVEYVQKSYELLEDTLVDDFVAGPTMTIADFSCISTISSIMGVVPLEQSKHPRIYAWIDRLKQLPYYEEANGGGGTDLGKFVLAKKEENAKA,soluble
7,MATITDNDVALTITKIHQIQGSGTAFNSAFGGIRTIEGVVVAAFPGGSGLNGFFVQEEDADTDNDSTTSEGIFVFDPTGQFSGSVGDKVRVTGSVSEFSTNNGVSSLTQLSSVSSIINLGADILPKMSNIQLPVTTVADLERYEGMRVNISAGNGDLTVTEHFQLGRFGQVVLSATGTSNQPGTDGRLEQYTQFNDPSVAGYAAYLDEIAKRRIILDDGSSTQNPATIIFGRGGEPLSATNTLRGGDTVASITGVLDQRFEGYRVQTSTGVDFTPANPRPATTPDVGGTLKVASFNVLNYFNGDLEHHHHHH,not soluble
8,MATVKIKFRPSSVDGKEGTVYYQVIHVRVARQISTSYRLFPAEWDKRRARIVAAPSDEGRRQHLSLLEGKIMEDTDRLEGIITTLERRRGAFTADDVVSAFNGGHYSLSFPVFMREVINGLKRLGKIRTSETYTSTLNSFIRFMEGRDVLPDDMDSDLMVAYEAWLESGGVSMNTISFYMRNLRAVYNRAVEKGLTVQRFPFKHVYTGVEKTTKRAVPLHVIKRLKSLDLSFEPAKAYARDMLLFSFYTRGMSMVDMAFLKKKDLNNGILSYRRKKTGQQLLIKWEPCMQEIVDRYNIPGSPYLLSVIDRPGTDERKQYINASHRINRHLKVLGKELGMSVPLTHYVARHSWASAARSKNIPISVISEGMGHDSETTTRIYLASLDTATIDRANKLILKSLQI,not soluble
9,MSLFRIQLRTMSSKTCKSDYPKEFVSFLNSSHSPYHTVHNIKKHLVSNGFKELSERDSWAGHVAQKGKYFVTRNGSSIIAFAVGGKWEPGNPIAITGAHTDSPALRIKPISKRVSEKYLQVGVETYGGAIWHSWFDKDLGVAGRVFVKDAKTGKSIARLVDLNRPLLKIPTLAIHLDRDVNQKFEFNRETQLLPIGGLQEDKTEAKTEKEINNGEFTSIKTIVQRHHAELLGLIAKELAIDTIEDIEDFELILYDHNASTLGGFNDEFVFSGRLDNLTSCFTSMHGLTLAADTEIDRESGIRLMACFDHEEIGSSSAQGADSNFLPNILERLSILKGDGSDQTKPLFHSAILETSAKSFFLSSDVAHAVHPNYANKYESQHKPLLGGGPVIKINANQRYMTNSPGLVLVKRLAEAAKVPLQLFVVANDSPCGSTIGPILASKTGIRTLDLGNPVLSMHSIRETGGSADLEFQIKLFKEFFERYTSIESEIVVEGHHHHHH,soluble
10,AHHHHHHGSRELVEIIKGIGIEGAKEVEEKVDRQFYALQYLFRHQDPEMFIKLVIANSLVSYQLTGRGEDWWWEFARYFSGREVDSIWKAYGEFLPKSKNNRRLIEAKLNRIRKVEGFLSTLTLKDLEGYYKNMKMLWKALIKIMGSREDSKTIVFTVKMFGYASRIAFSRFIPYPMEIPIPEDLRIKSVTSKLTQEKPTKFWMKIGQESGVPPLHIDSLIWPLLGNADLTPLDIELRNKLMKLTELLGL,soluble
11,MAIIEEIFEDEEDQITKVDSLKKEGNNFFANGEFEKANEKYQEAIASCPPTSTEVQSILLSNSAAALIKLRKWESAVEAASKSIEIGATNEKALERRAFAYSNMSEKYENSIEDYKQLQESLPKRRVELDRKIAEINEKINNRNEAMKADVMEKLKGFGNFCLSPFGLSTDSFEMVPNGNGGFSVQMKGATNKQEGASQEKKEEENA,soluble
12,MGWCVMAVLVDSETRVLVQGITGREGSFHAKAMLEYGTKVVAGVTPGKGGSEVHGVPVYDSVKEALAEHPEINTSIVFVPAPFAPDAVYEAVDAGIRLVVVITEGIPVHDTMRFVNYARQKGATIIGPNCPGAITPGQAKVGIMPGHIFKEGGVAVVSRSGTLTYEISYMLTRQGIGQSTVIGIGGDPIVGLSFTEALKLFQEDPQTEALVLIGEIGGDMEERAAEMIKKGEFTKPVIAYIAGRTAPPEKRMGHAGAIIMMGTGTYEGKVKALREAGVEVAETPFEVPELVRKALRR,soluble
13,RTAAELMGRCSSKGLGISDIMFINERASRSEEEIREGLLHIWSVMEACVETSLKREGVLPGGLKVRRRSPDWLERLLKEDKDRNDPKYWQEWVNLIALAVNEENASGGRVVTAPTNGAAGIIPAVLYYALNYAPGMDKASQADKDDVVVKFLLAAGAVGVLYKEQASISGAEVGCQGEVGSASSMAAAGLAEVMGGSPGQVENAAEIAMEHNLGLTCDPIGGLVQIPCIERNAIAAAKAINAAKMALWGDGTHRVSLDEVIVTMRETGKDMSSKYKETAMGGLAVN,not soluble
14,MSLRQAHFLKGKDAMNNPSVIPAFDFREMVTTLDNKIITTSLKVADYFGKRHKDVLRAIRNLKCSDDFTQRNFAPIDFIDKNGDVQPMYNITRDGCMMLVMGFTGKTAAAVKECYINAFNWMAEQLNRRMAMGEEGHHHHHH,soluble
15,MSLRTLYSGGLVFDGIGNLLEQHGVLVDGQKICRIAPLGEFEGFSDEKVDTSDGTLLPGLIDCHVHIVYSGEADPKSHLLKLRPGQIVINALENAKKTLSNGITSIRDLGGRDFLEFAVRDACNSGRQTGPTIRAAGRMICMTGGHGNAFGRVADGPDEVLKAVREQIHAGSDVIKLMATGGVMTPGVNPEDAHYSEEELRVGVNEGHRFNRKCASHAQGSAGILNAVNAGMDSIEHGIFMTQESLESMLKHQTYLVPTLSAVNNIYLNRDNGIPEFIVEKTLRIRERHHQSIKMFYKAGGKMAMGTDAGTPFNLHGENTNELQYMVDLGVSNLDVLKISTVNAADLMDLEDRGIIQEGFYADFLIVNGDPVKDISKVADRKNHRIVVKNGVHINEGHHHHHH,soluble
16,MWKWEAENDAKGVVVIAHNILEHTGRYAYVITMLRRNGYHVIMGDLPGQGQTSRANKGQIENFQTYHESLLDWLKIANEYKIPTYVLGVGLGGLILLNLLEKVELPIEGMMLISPMLELQKNGKNRKDKLVSNIGKISKDTRFNVGVEPKDLTRNLEIVEETVNDGLMLKKATYHWYNTINETMKDTMAHIHDIQPMPTLLMYGTKDLIVDTRAIDEFKEKYQTPELYFKAWQGFYHEVHNEPERDEVMRYILTFLNNSVN,not soluble
17,MGSDKIHHHHHHMHVFNYGRSYLERGDARPIYLPELPLVRGALLPQAPLDMAGALRDAAPDAWGRRVIINRLMGLKGVGAHAVEFDELTYLLHSGSDRIGALDFQTSPDRYRPREAENATLEELLEAAERVDRGEPIPPALDKALFHGSSIGGARPKALIEDGQEKFIAKFSATNDTYAIVKAEYVAMRLAKEAAGLTVAAVRLVKANGKDVLLVKRFDRERTGAGWTRRAMVSALTLLGLSEMQARYASYHDLTDIIRARFTEPRDSLRELYGRMVFNVLSGNTDDHARNHAAFWNGESLALTPAYDLCPQQRTGREANQAMLIGQEDRRSRLETCRLAASAFLLNDVEARALIHAQIDAIGAAWDGICDEADLSKIDRAFLWRRQFLNDYAFEGFGR,not soluble
18,GSEVAIKMVVVGNGAVGKSSMIQRYCKGIFTKDYKKTIGVDFLERQIQVNDEDVRLMLWDTAGQEEFDAITKAYYRGAQACVLVFSTTDRESFEAISSWREKVVAEVGDIPTALVQNKIDLLDDSCIKNEEAEGLAKRLKLRFYRTSVKEDLNVSEVFKYLAEKHLQK,soluble
19,MNPNPNVKYPIEGNQNVHFIKNTITKANILVGDYSYYDAKDGETFEDRVLHHYEFLGDRLIIGKFCCIASGVTFIMNGANHRMDGFSAYPFNIFGNGWEKYTPNLSDLPYKGDTVIGNDVWIGMDATIMPGIKIGDGAIIAAKSVVTRDVAPYTIVGGNPANKIRERFSNAIIEELLQIQWWHFDIEKITENIGAIVQGNIEPLRKLKRE,not soluble
